Test results as given in patent US9879094B2, “Nucleic acid molecules encoding for BACE1 antibodies” (Genentech, Inc., priority 2010, dated 2018).
Values joined by “and” are separate entries in the source; they are usually repeats but may differ in a detail not shown here. Equal entries are not always repeated.

Columns and labels:
[1] = Antibody concentration in brain of hAPP transgenic mice; format: in vivo, mouse
Experimental: (§1) Briefly, 5-month old human APP-expressing mice were treated with 30 mg/kg or 100 mg/kg YW412.8.31 antibody or vehicle by intra-peritoneal injection every four days for a total of three doses (i.e., at days 1, 5, and 9). Animals were euthanized two hours post the final dose. Serum, plasma, and brains were harvested and processed. Plasma, cortex and hippocampus were analyzed for levels of soluble Aβ1-40 and Aβ1-42 using an Amyloid beta (Aβ) ELISA test kit per manufacture's instructions (The Genetics Company). Pharmacokinetic analysis was performed on serum and brain homogenates.
(§2) Similar experiments were also performed in which YW412.8.31 anti-BACE1 antibody was delivered systemically or directly into hAPP transgenic mice brains by continuous ICV infusion. For ICV delivery, antibody was delivered continuously for 7 days via an Alzet osmotic minipump (model 2001) implanted unilaterally. The amount of YW412.8.31 antibody delivered was 0.041 mg/day (low dose) or 0.41 mg/day (high dose); 0.33 mg/day Control IgG was delivered to the control group. At euthanasia, plasma, cortex, and hippocampus were harvested and analyzed for levels of soluble Aβ1-40 and Aβ1-42 by ELISA (The Genetics Company) following manufacturer's instructions.
(§3) Total anti-BACE1 antibody concentrations in mouse serum and brain samples were measured as follows. Antibody concentrations in mouse serum and brain samples were measured using an enzyme-linked immunosorbent assay (ELISA). NUNC 384 well Maxisorp immunoplates (Neptune, N.J.) were coated with F(ab′)2 fragment of donkey anti-human IgG, Fc fragment specific polyclonal antibody (Jackson ImmunoResearch, West Grove, Pa.) overnight at 4° C. Plates were blocked with phosphate-buffered saline (PBS) containing 0.5% bovine serum albumin (BSA) for 1 hour at room temperature the next day. Each antibody (Control IgG and anti-BACE1) was used as a standard to quantify the respective antibody concentrations. After washing plates with PBS containing 0.05% Tween 20 using a microplate washer (Bio-Tek Instruments, Inc., Winooski, Vt.), standards and samples diluted in PBS containing 0.5% BSA, 0.35 M NaCl, 0.25% CHAPS, 5 mM EDTA, 0.05% Tween 20 and 15 ppm Proclin were incubated on plates for 2 hours at room temperature with mild agitation. Bound antibody was detected with horseradish peroxidase conjugated F(ab′)2 goat anti-human IgG, Fc specific polyclonal antibody (Jackson ImmunoResearch). Finally, plates were developed using the substrate 3,3′,5,5′-tetramethyl benzidine (TMB) (KPL, Inc., Gaithersburg, Md.). Absorbance was measured at a wavelength of 450 nm with a reference of 630 nm on a Multiskan Ascent reader (Thermo Scientific, Hudson, N.H.). Concentrations were determined from the standard curve using a four-parameter non-linear regression program.

Guinea pig BACE1 = Guinea pig BACE1 (Cavia porcellus, UniProt Q1KLR6); test: BIAcore SPR binding kinetics, guinea pig BACE1; details: guinea pig BACE1, pH 7.0
Sequence of Guinea pig BACE1 (Q1KLR6 46-473): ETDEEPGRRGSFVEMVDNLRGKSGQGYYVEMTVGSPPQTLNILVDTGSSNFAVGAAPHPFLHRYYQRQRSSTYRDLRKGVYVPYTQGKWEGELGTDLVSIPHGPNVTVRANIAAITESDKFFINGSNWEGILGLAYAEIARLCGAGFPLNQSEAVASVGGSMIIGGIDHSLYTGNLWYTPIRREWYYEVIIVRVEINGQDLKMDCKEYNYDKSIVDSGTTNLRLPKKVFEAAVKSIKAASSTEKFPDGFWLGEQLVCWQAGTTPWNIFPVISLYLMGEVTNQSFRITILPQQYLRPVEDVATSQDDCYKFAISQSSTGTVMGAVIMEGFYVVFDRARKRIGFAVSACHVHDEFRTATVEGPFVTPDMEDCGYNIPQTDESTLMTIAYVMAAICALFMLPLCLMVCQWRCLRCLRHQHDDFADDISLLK

[2] = test system: Aβ1-40 and Aβ1-42 in hAPP transgenic mice; test: hAPP transgenic mice, systemic (IP) dosing, Aβ levels; format: in vivo, mouse; details: 100 mg/kg IP, 3 doses Q4D
Experimental: as §1

[3] = test system: Aβ1-40 and Aβ1-42 in hAPP transgenic mice; test: hAPP transgenic mice, continuous ICV infusion, Aβ levels; format: in vivo, mouse; details: ICV infusion 7 days
Experimental: as §2

[4] = Antibody concentration in serum and brain of wild-type mice; format: in vivo, mouse
Experimental: as §3

Aβ1-40 in wild-type mice = test: Wild-type mice, single IV dose, Aβ1-40 levels; format: in vivo, mouse; details: 50 mg/kg single IV
Experimental: The ability of anti-BACE1 antibodies YW412.8.31 to modulate amyloidogenic processing was also assessed in wild-type mice. Briefly, experiments were performed as described above. A single dose of control IgG antibody or YW412.8.31 anti-BACE1 antibody (50 mg/kg) was delivered systemically by intravenous (IV) injection to wild-type mice. After 24 or 48 hours, plasma and brain samples were harvested and Aβ1-40 levels were analyzed. The concentrations of total mouse Aβ1-40 in plasma and brain were determined using a sandwich ELISA following similar procedures described below for measuring total anti-BACE1 antibody concentrations. Briefly, rabbit polyclonal antibody specific for the C terminus of Aβ1-40 (Millipore, Bedford, Mass.) was coated onto plates, and biotinylated anti-mouse Aβ monoclonal antibody M3.2 (Covance, Dedham, Mass.) was used for detection. The assay had lower limit of quantification values of 1.96 pg/ml in plasma and 39.1 pg/g in brain. As is shown in FIG. 16, panel B, Plasma Aβ1-40 was reduced by 35% and cortical Aβ1-40 was reduced by 20%.

[5] = test system: 293-HEK cells stably expressing wild-type human amyloid precursor protein; test: Aβ1-40 production in 293-HEK cells expressing APP; format: cell-based
Experimental: To determine whether the observed in vitro inhibitory action of the anti-BACE1 antibodies on APP processing was also present in a cellular context, […]. The ability of the antibodies to inhibit Aβ1-40 production in 293-HEK cells stably expressing wild-type human amyloid precursor protein was assessed as follows. 293-APP^WT cells were seeded overnight at a density of 3×10^4 cells/well in a 96-well plate. […] of fresh media (DMEM+10% FBS) containing an anti-BACE1 antibody or a control IgG1 antibody was incubated with the cells for 24 hours at 37° C. A tricyclic small molecule BACE1 inhibitor (BACE1 SMI) was also used as a control ((Compound 8e—Charrier, N. et al. J. Med. Chem. 51:3313-3317 (2008)). The cellular media was harvested and assayed for the presence of Aβ1-40 using a Aβ1-40 HTRF® assay (CisBio) according to the manufacturer's instructions. Aβ1-40 values were normalized for cell viability, as determined using the CellTiter-Glo Luminescent Cell Viability Assay (Promega). Experiments were performed at least three times, and each point in each experiment was repeated in duplicate. Data was plotted using a four-parameter non-linear regression curve-fitting program (Kaleidagraph, Synergy Software).

[6] = 30 mg/kg IP every 4 days, 3 doses
[7] = 100 mg/kg IP every 4 days, 3 doses

B1: YW412.8.31: affinity matured form of YW412.8 anti-BACE1 antibody (antibody, V domains shown)
VH: EVQLVESGGGLVQPGGSLRLSCAASGFTFLGYGIHWVRQAPGKGLEWVGWISPAGGSTDYADSVKGRFTISADTSKNTAYLQMNSLRAEDTAVYYCARGPFSPWVMDYWGQGTLVTVSS
VL: DIQMTQSPSSLSASVGDRVTITCRASQDVSTAVAWYQQKPGKAPKLLIYSASFLYSGVPSRFSGSGSGTDFTLTISSLQPEDFATYYCQQFPTYLPTFGQGTKVEIK
[1]; systemic delivery 30 mg/kg
  ANTIBODY CONCENTRATION IN BRAIN: 0.7 μG/G
  antibody concentration in brain: 4.8 ± 3.6 nM and 4.8 nM
[1]; systemic delivery 100 mg/kg
  ANTIBODY CONCENTRATION IN BRAIN: 2.1 μG/G
  antibody concentration in brain: 14.0 ± 9.3 nM and 14 nM
Guinea pig BACE1
  KOFF: 2.7 × 10^−4 S^−1
  KON: 1.0 × 10^5 M^−1S^−1
[2]
  reduction of Aβ1-40 and Aβ1-42 in the brain: 15-22%
  reduction of cortical Aβ1-40 and Aβ1-42 (trend): 12-18%
  reduction of hippocampal Aβ1-40 and Aβ1-42: 13-22%
[3]
  Aβ reduction following ICV infusion: 15-23%
[3]; both doses
  reduction of Aβ1-40 and Aβ1-42 in cortex: 15-23%
  reduction of Aβ1-40 and Aβ1-42 in hippocampus: 15-20%
[4]; [6]
  concentration in brain: 0.9±0.6 μg/g and 5.9±4.3 nM
  concentration in serum: 480 ± 210 µg/mL
[4]; [7]
  concentration in brain: 3.0±1.6 μg/g and 20±10 nM
  concentration in serum: 1500 ± 440 µg/mL
[4]; 100 mg/kg single IP, 4 hours
  brain concentration as share of concentration in serum: ~0.07%
  concentration in brain: 0.7±0.4 μg/g and 4.7±2.7 nM
  concentration in serum: 1040±140 μg/mL and 6.9±0.9 μM
Aβ1-40 in wild-type mice; 24 or 48 hours
  reduction of cortical Aβ1-40: 20%
Aβ1-40 in wild-type mice; at 24 hr
  reduction of plasma Aβ1-40: 35%
[5]; 24 hours, compared to non-BACE1 IgG (Xolair)
  inhibition of Aβ1-40 production: inhibited
[5]; APP-expressing 293 cells
  maximum reduction of Aβ1-40 production: ~90%
